In patent publication WO2024101382A1 (dated 2024):

Biological target: T1, Recombinant mouse LSR-Fc (mouse, UniProt Q99KG5 36-206, limits assumed)
T1 construct: not shown: Fc part
T1 sequence (looked up): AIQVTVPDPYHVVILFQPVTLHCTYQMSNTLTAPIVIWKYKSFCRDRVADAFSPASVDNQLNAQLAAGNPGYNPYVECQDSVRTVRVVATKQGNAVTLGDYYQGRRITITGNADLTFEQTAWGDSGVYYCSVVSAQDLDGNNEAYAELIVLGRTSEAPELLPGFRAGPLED
Experiment: ELISA, LSR-Fc coated on plate

B1: Chicken mouse chimeric anti-LSR antibody (#27-6mF18) (antibody, V domains shown)
VH: AVTLDESGGGLQMPGGALSLVCRASGFDFSSYEMQWIRQAPGKGLEWVAGISGAGSGTRYGSAVKGRATISRDNGQSTVRLQLNNLRAEDTGIYFCARSSNIDAWGHGTEVTVST
VL: ALTQPASVSANLGGTVKITCSGGGRYAESYYYGWYQQKSPGSTPVTVIYWNDKRPSNIPSRFSGSLSGSTNTLTITGVQVEDEAVYFCGSYEDSRSAFGAGTTLTV
notes: Chicken-mouse chimeric antibody; also called anti-LSR monoclonal antibody #27-6 mF-18
B1: binds.
